According to publication PMC4608358, “Physiological modulation of BiP activity by trans-protomer engagement of the interdomain linker” (eLife, 2015):
Where no end group is shown, it is not given here.

Key:
[1] = biological target: T1, wildtype hamster BiP, N-terminally hexahistidine-tagged (hamster, UniProt G3I8R9 19-654); assay: SEC; BiP protein (50 µM) with 1 µM lucifer yellow-labeled tracer (peptide or BiP V461F), 16 hr in HKM; A230 nm and LY fluorescence recorded; with or without SubA (36 ng/µl) before the run; settings: both partners purified
T1 construct: BiP (GRP78), hamster; Construct details are in Supplementary file 1; also called wt BiP; wildtype BiP; source: E. coli M15 (pQE10), purified (Ni-NTA); not shown: His6, N-terminal, kept

[2] = biological target: the molecule itself; assay: native gel or EMSA; purified BiP proteins (30-50 µM) on a Tris-glycine native gel (4.5% stacking, 7.5% separation), Coomassie stain or immunoblot; with or without ATP (3-5 mM)
[3] = biological target: the molecule itself; assay: SEC; purified BiP proteins at 50 µM in HKM buffer (50 mM HEPES-KOH pH 7.4, 150 mM KCl, 10 mM MgCl2), 16 hr at room temperature, no added nucleotide; SEC-3 HPLC column, A230 nm
[4] = biological target: T1, wildtype hamster BiP, N-terminally …; assay: SEC; wildtype BiP (50 µM) incubated 16 hr with 1 mM peptide in HKM, SEC-3 column; competition of peptides with oligomerisation; settings: both partners purified

T1 sequence (G3I8R9 19-654): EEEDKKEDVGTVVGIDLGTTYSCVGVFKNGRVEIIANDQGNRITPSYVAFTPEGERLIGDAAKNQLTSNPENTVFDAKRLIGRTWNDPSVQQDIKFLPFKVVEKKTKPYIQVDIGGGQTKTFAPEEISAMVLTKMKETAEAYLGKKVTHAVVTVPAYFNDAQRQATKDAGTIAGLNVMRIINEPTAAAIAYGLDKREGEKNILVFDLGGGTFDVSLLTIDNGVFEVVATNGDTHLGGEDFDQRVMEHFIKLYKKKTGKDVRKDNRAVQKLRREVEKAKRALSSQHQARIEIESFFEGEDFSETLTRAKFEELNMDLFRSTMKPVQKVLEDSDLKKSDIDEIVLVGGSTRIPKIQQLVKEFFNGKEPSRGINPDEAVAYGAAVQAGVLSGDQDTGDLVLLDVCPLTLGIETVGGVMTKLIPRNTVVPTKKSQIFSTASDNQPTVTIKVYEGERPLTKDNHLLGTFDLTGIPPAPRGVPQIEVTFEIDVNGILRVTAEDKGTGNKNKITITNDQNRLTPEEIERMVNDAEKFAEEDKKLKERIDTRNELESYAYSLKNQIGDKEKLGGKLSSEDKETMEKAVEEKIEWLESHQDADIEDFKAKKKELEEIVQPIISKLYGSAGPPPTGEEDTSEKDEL

B1: lucifer yellow-labeled BiP-binding peptide (HTFPAVL-LY) (peptide)
peptide: HTFPAVL-{lucifer yellow}
notes: BiP substrate peptide (Marcinowski et al., 2011), fluorescently labelled; also called Pep-LY
- ratio of fluorescent to quantity signal R^(FLU/A230 nm), peak II (peak I set to 1.00) [1]: 0.48
- ratio of fluorescent to quantity signal R^(FLU/A230 nm), peak III (peak I set to 1.00) [1]: 0.26

B2: BiP^T37G, hamster BiP mutant locked in the domain-uncoupled state (natural protein)
chain: not shown
notes: BiP (GRP78), hamster; Construct details are in Supplementary file 1; source: E. coli, purified; not shown: His6, N-terminal, kept
- binding result [2]: binds

B3: BiP^G226D, hamster BiP mutant locked in the domain-uncoupled state (natural protein)
chain: not shown
notes: as for B2
- binding result [2]: binds

B4: BiP^T229A, ATPase activity-deficient mutant of hamster BiP (natural protein)
chain: not shown
notes: BiP (GRP78), hamster; Construct details are in Supplementary file 1; source: E. coli M15 (pQE10), purified (Ni-NTA); not shown: His6, N-terminal, kept
- binding result [2]: binds

B5: BiP^lidless, hamster BiP lacking its C-terminal lid (∆554–654) (domain or fragment)
chain: not shown
notes: Construct details are in Supplementary file 1; also called lidless BiP; source: E. coli, purified; not shown: His6, N-terminal, kept
- binding result [3]: binds

B6: BiP-binding peptide HTFPAVL (peptide)
peptide: HTFPAVL
notes: well-characterized BiP substrate peptide (Marcinowski et al., 2011); also called BiP substrate peptide
- binding result [4]: binds

B7: peptide derived from the interdomain linker of BiP (DTGDLVLLD) (peptide)
peptide: DTGDLVLLD
notes: interdomain linker of BiP (GRP78), hamster; also called Linker Pep; linker peptide
- binding result [4]: binds
